Test results as given in PMC9177958, “Structures of nonsense-mediated mRNA decay factors UPF3B and UPF3A in complex with UPF2 reveal molecular basis for competitive binding and for neurodevelopmental disorder-causing mutation” (Nucleic Acids Research, 2022).

B1: biotinylated Avi-UPF2-MIF4GIII (domain or fragment, UniProt Q9HAU5 761-1054, looked up)
chain: EKTVKKKRPPLQEYVRKLLYKDLSKVTTEKVLRQMRKLPWQDQEVKDYVICCMINIWNVKYNSIHCVANLLAGLVLYQEDVGIHVVDGVLEDIRLGMEVNQPKFNQRRISSAKFLGELYNYRMVESAVIFRTLYSFTSFGVNPDGSPSSLDPPEHLFRIRLVCTILDTCGQYFDRGSSKRKLDCFLVYFQRYVWWKKSLEVWTKDHPFPIDIDYMISDTLELLRPKIKLCNSLEESIRQVQDLEREFLIKLGLVNDKDSKDSMTEGENLEEDEEEEEGGAETEEQSGNESEVNE
modifications: biotin on the Avi tag (BirA)
notes: UPF2, third middle-domain of eukaryotic initiation factor 4G (MIF4GIII), residues 761-1054; Avi tag added by site-directed mutagenesis to UPF2-MIF4GIII; also called immobilized UPF2-MIF4GIII; source: E. coli BL21 Rosetta2(DE3), purified (Ni-NTA, TEV, reverse IMAC, ion exchange); biotinylated with BirA, SEC
B2: UPF3A-58–206-Iso1 (domain or fragment, human, UniProt Q9H1J1 58-206, looked up)
chain: KPREEKRTALSKVVIRRLPPGLTKEQLEEQLRPLPAHDYFEFFAADLSLYPHLYSRAYINFRNPDDILLFRDRFDGYIFLDSKGLEYPAVVEFAPFQKIAKKKLRKKDAKTGSIEDDPEYKKFLETYCVEEEKTSANPETLLGEMEAKT
notes: Codon-optimized for E. coli, gene-synthesized; also called UPF3A-58–208 (as printed once); source: E. coli BL21 Rosetta2(DE3), purified (Ni-NTA, TEV, reverse IMAC, ion exchange)
B3: UPF3A-58–206-RRM* A101S-A102N-L104T (domain or fragment, human, UniProt Q9H1J1 58-206, looked up)
chain: KPREEKRTALSKVVIRRLPPGLTKEQLEEQLRPLPAHDYFEFFSNDTSLYPHLYSRAYINFRNPDDILLFRDRFDGYIFLDSKGLEYPAVVEFAPFQKIAKKKLRKKDAKTGSIEDDPEYKKFLETYCVEEEKTSANPETLLGEMEAKT
notes: also called RRM* construct; source: E. coli BL21 Rosetta2(DE3), purified (Ni-NTA, TEV, reverse IMAC, ion exchange)
B4: UPF3A-58–206-NOPS* C185A-V186T-E187D (domain or fragment, human, UniProt Q9H1J1 58-206, looked up)
chain: KPREEKRTALSKVVIRRLPPGLTKEQLEEQLRPLPAHDYFEFFAADLSLYPHLYSRAYINFRNPDDILLFRDRFDGYIFLDSKGLEYPAVVEFAPFQKIAKKKLRKKDAKTGSIEDDPEYKKFLETYATDEEKTSANPETLLGEMEAKT
notes: also called NOPS* construct; source: E. coli BL21 Rosetta2(DE3), purified (Ni-NTA, TEV, reverse IMAC, ion exchange)
B5: UPF3B-41–189 (domain or fragment, human, UniProt Q9BZI7 41-189, looked up)
chain: DRNKEKKEALSKVVIRRLPPTLTKEQLQEHLQPMPEHDYFEFFSNDTSLYPHMYARAYINFKNQEDIILFRDRFDGYVFLDNKGQEYPAIVEFAPFQKAAKKKTKKRDTKVGTIDDDPEYRKFLESYATDNEKMTSTPETLLEEIEAKN
notes: UPF3B, human, RRM-L and N-terminal part of the middle-domain (NOPS-L), residues 41-189; also called UPF3B-1–189 (as printed once); source: E. coli BL21 Rosetta2(DE3), purified (Ni-NTA, TEV, reverse IMAC, ion exchange)
B6: UPF3B-41–189 Y167A (domain or fragment, human, UniProt Q9BZI7 41-189, looked up)
chain: DRNKEKKEALSKVVIRRLPPTLTKEQLQEHLQPMPEHDYFEFFSNDTSLYPHMYARAYINFKNQEDIILFRDRFDGYVFLDNKGQEYPAIVEFAPFQKAAKKKTKKRDTKVGTIDDDPEYRKFLESAATDNEKMTSTPETLLEEIEAKN
notes: UPF3B, human, residues 41-189 with Y167A; source: E. coli BL21 Rosetta2(DE3), purified (Ni-NTA, TEV, reverse IMAC, ion exchange)
B7: UPF3B-41–189 Y167D (domain or fragment, human, UniProt Q9BZI7 41-189, looked up)
chain: DRNKEKKEALSKVVIRRLPPTLTKEQLQEHLQPMPEHDYFEFFSNDTSLYPHMYARAYINFKNQEDIILFRDRFDGYVFLDNKGQEYPAIVEFAPFQKAAKKKTKKRDTKVGTIDDDPEYRKFLESDATDNEKMTSTPETLLEEIEAKN
notes: UPF3B, human, residues 41-189 with Y167D; also called Y167D (phosphomimetic); source: E. coli BL21 Rosetta2(DE3), purified (Ni-NTA, TEV, reverse IMAC, ion exchange)
B8: UPF3B-41–189 Y160D (domain or fragment, human, UniProt Q9BZI7 41-189, looked up)
chain: DRNKEKKEALSKVVIRRLPPTLTKEQLQEHLQPMPEHDYFEFFSNDTSLYPHMYARAYINFKNQEDIILFRDRFDGYVFLDNKGQEYPAIVEFAPFQKAAKKKTKKRDTKVGTIDDDPEDRKFLESYATDNEKMTSTPETLLEEIEAKN
notes: UPF3B, human, residues 41-189 with the disease-causing (XLID) mutation Y160D; Y160D is a patient mutation and is also used as a phosphomimetic; also called UPF3B-Y160D; phosphomimetic/disease mutation; source: E. coli BL21 Rosetta2(DE3), purified (Ni-NTA, TEV, reverse IMAC, ion exchange)
B9: UPF3B-41–189 Y160A + Y167A (domain or fragment, human, UniProt Q9BZI7 41-189, looked up)
chain: DRNKEKKEALSKVVIRRLPPTLTKEQLQEHLQPMPEHDYFEFFSNDTSLYPHMYARAYINFKNQEDIILFRDRFDGYVFLDNKGQEYPAIVEFAPFQKAAKKKTKKRDTKVGTIDDDPEARKFLESAATDNEKMTSTPETLLEEIEAKN
notes: UPF3B, human, residues 41-189 with Y160A and Y167A; source: E. coli BL21 Rosetta2(DE3), purified (Ni-NTA, TEV, reverse IMAC, ion exchange)
B10: UPF3B-41–189 Y160D + Y167D (domain or fragment, human, UniProt Q9BZI7 41-189, looked up)
chain: DRNKEKKEALSKVVIRRLPPTLTKEQLQEHLQPMPEHDYFEFFSNDTSLYPHMYARAYINFKNQEDIILFRDRFDGYVFLDNKGQEYPAIVEFAPFQKAAKKKTKKRDTKVGTIDDDPEDRKFLESDATDNEKMTSTPETLLEEIEAKN
notes: UPF3B, human, residues 41-189 with Y160D and Y167D; source: E. coli BL21 Rosetta2(DE3), purified (Ni-NTA, TEV, reverse IMAC, ion exchange)
B11: UPF3B-41–189 Y160A (domain or fragment, human, UniProt Q9BZI7 41-189, looked up)
chain: DRNKEKKEALSKVVIRRLPPTLTKEQLQEHLQPMPEHDYFEFFSNDTSLYPHMYARAYINFKNQEDIILFRDRFDGYVFLDNKGQEYPAIVEFAPFQKAAKKKTKKRDTKVGTIDDDPEARKFLESYATDNEKMTSTPETLLEEIEAKN
notes: UPF3B, human, residues 41-189 with Y160A; source: E. coli BL21 Rosetta2(DE3), purified (Ni-NTA, TEV, reverse IMAC, ion exchange)
B12: UPF3B-41–189 F163A (domain or fragment, human, UniProt Q9BZI7 41-189, looked up)
chain: DRNKEKKEALSKVVIRRLPPTLTKEQLQEHLQPMPEHDYFEFFSNDTSLYPHMYARAYINFKNQEDIILFRDRFDGYVFLDNKGQEYPAIVEFAPFQKAAKKKTKKRDTKVGTIDDDPEYRKALESYATDNEKMTSTPETLLEEIEAKN
notes: UPF3B, human, residues 41-189 with F163A; it is named in the results; source: E. coli BL21 Rosetta2(DE3), purified (Ni-NTA, TEV, reverse IMAC, ion exchange)
B13: UPF3B-41–143 (domain or fragment, human, UniProt Q9BZI7 41-143, looked up)
chain: DRNKEKKEALSKVVIRRLPPTLTKEQLQEHLQPMPEHDYFEFFSNDTSLYPHMYARAYINFKNQEDIILFRDRFDGYVFLDNKGQEYPAIVEFAPFQKAAKKK
notes: UPF3B, human, RRM-L domain, residues 41-143; also called RRM-L alone; RRM-L only; source: E. coli BL21 Rosetta2(DE3), purified (Ni-NTA, TEV, reverse IMAC, ion exchange)
B14: 24mer dsDNA (dsDNA)
DNA 1: CCCTGAGCTGACGCAGCACCTGGG
DNA 2: CCCAGGTGCTGCGTCAGCTCAGGG
B15: 24mer ssDNA (ssDNA)
DNA: CCCTGAGCTGACGCAGCACCTGGG

Biological target: T1, UPF3A-WT (human, UniProt Q9H1J1 1-476)
T1 construct: UPF3A, human, full length; The cloning of UPF3A-WT is not described in the methods; also called full-length UPF3A-WT; source: insect cells (MultiBac), purified (Ni-NTA, TEV, reverse IMAC, ion exchange)
T1 sequence (looked up): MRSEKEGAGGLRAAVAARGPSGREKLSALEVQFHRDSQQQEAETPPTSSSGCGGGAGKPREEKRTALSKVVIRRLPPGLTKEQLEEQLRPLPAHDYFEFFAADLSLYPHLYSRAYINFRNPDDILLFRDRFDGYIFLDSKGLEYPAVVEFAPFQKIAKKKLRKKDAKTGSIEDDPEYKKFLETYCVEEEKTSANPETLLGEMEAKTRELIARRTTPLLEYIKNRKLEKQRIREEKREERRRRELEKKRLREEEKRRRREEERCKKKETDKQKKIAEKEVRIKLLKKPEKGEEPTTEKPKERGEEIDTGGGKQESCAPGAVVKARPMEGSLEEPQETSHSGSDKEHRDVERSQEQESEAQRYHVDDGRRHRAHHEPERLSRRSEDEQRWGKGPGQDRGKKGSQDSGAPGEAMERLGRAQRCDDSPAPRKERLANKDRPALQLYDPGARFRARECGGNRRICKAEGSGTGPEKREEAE
Assay: SPR; 350 RU biotinylated Avi-UPF2-MIF4GIII immobilised on an SA chip (Biacore T200); UPF3B and UPF3A constructs injected; 15°C; 300 mM NaCl, 25 mM HEPES pH 7.4, 0.25 mM TCEP, 0.05% Tween-20; global fit, 1:1 binding model
Conditions: both partners purified

**Q.** For B1, which Kd is on record?
**A.** 0.048 nM

Biological target: T2, UPF3B-WT (residues 1–470) (human, UniProt Q9BZI7-2 1-470)
T2 construct: UPF3B, human, isoform 2 (the predominant form found in cells), residues 1-470, printed length 470; also called full-length UPF3B; source: insect cells (MultiBac), purified (Ni-NTA, TEV, reverse IMAC, ion exchange)
T2 sequence (looked up): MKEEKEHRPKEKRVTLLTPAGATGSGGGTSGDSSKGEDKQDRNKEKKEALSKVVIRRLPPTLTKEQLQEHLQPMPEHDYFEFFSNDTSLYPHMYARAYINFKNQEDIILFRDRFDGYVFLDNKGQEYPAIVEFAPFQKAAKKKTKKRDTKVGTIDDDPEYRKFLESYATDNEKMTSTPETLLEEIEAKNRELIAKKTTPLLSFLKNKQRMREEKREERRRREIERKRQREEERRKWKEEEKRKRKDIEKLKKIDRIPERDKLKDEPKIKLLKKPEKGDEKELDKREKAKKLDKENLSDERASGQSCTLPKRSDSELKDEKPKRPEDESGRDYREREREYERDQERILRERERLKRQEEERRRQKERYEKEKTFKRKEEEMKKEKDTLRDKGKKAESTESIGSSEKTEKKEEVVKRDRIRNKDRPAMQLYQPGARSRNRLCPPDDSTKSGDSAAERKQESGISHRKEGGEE
Assay: as above
Conditions: both partners purified

**Q.** With B1 as the binder, how does the Kd read?
**A.** 0.47 nM

Biological target: B1
Assay: as above
Conditions: both partners purified

**Q.** B2 was tested. Which Kd did it give?
**A.** 0.22 nM

**Q.** How did the Kd turn out when B3 was run?
**A.** 0.77 nM

**Q.** Which Kd does the source give for B4 here?
**A.** 2.6 nM

**Q.** B5 was tested. Which Kd did it give?
**A.** 3.6 nM

**Q.** For B6, which Kd is on record?
**A.** 3.3 nM

**Q.** For B7, which Kd is on record?
**A.** 7.4 nM

**Q.** Which Kd does the source give for B8 here?
**A.** 140 nM

**Q.** How did the Kd turn out when B9 was run?
**A.** ~130 nM

**Q.** B10 was tested. Which Kd did it give?
**A.** ~130 nM

**Q.** Which Kd does the source give for B11 here?
**A.** 88 nM

**Q.** For B12, which Kd is on record?
**A.** 90 nM

**Q.** For B13, which Kd is on record?
**A.** 720 nM

Biological target: T3, UPF3B-WT (human, UniProt Q9BZI7-2 1-470)
T3 sequence: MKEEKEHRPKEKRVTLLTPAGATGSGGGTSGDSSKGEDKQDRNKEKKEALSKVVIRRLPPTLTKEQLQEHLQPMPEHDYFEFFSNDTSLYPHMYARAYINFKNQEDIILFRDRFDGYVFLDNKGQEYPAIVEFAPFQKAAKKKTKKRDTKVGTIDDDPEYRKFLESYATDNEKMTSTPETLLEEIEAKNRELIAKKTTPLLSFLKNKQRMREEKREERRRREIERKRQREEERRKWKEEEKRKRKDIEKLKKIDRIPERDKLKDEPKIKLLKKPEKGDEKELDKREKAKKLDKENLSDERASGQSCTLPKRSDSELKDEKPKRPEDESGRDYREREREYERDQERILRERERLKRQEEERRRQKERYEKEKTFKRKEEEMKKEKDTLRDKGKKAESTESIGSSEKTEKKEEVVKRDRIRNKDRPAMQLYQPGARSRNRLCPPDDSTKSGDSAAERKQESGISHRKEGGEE
Assay: fluorescence anisotropy; FA: 5 nM probe, 150 mM NaCl, 25 mM HEPES pH 7.45, 1 mM TCEP, 20 C; EMSA: 250 nM probe, 25 mM HEPES pH 7.45, 2 mM MgCl2, 150 mM NaCl, 0.5 mM TCEP, on ice
Conditions: protein: recombinant; tags: 6xHis removed by TEV; label: 5' HEX on strand 1; blunt

**Q.** How did the Kd turn out when B14 was run?
**A.** 61 nM

Same assay, conditions: protein: recombinant; tags: 6xHis removed by TEV; label: 5' HEX; single strand

**Q.** For B15, which Kd is on record?
**A.** 190 nM
